Key:
[1] = biological target: murine VCAM-1 (vascular endothelial adhesion molecule-1) (murine) (UniProt P29533); assay: bEnd.3 cells, unstimulated against IL-1α-stimulated
[2] = biological target: murine VCAM-1 (vascular endothelial adhesion molecule-1) (murine) (UniProt P29533); assay: IL-1α-activated bEnd.3 cells treated with anti-VCAM-1•tTF, bound coaguligand detected with 125I-labeled 10H10
[3] = biological target: murine VCAM-1 (vascular endothelial adhesion molecule-1) (murine) (UniProt P29533); assay: cell-based or functional assay

Chain of UniProt P29533 (P29533 25-739): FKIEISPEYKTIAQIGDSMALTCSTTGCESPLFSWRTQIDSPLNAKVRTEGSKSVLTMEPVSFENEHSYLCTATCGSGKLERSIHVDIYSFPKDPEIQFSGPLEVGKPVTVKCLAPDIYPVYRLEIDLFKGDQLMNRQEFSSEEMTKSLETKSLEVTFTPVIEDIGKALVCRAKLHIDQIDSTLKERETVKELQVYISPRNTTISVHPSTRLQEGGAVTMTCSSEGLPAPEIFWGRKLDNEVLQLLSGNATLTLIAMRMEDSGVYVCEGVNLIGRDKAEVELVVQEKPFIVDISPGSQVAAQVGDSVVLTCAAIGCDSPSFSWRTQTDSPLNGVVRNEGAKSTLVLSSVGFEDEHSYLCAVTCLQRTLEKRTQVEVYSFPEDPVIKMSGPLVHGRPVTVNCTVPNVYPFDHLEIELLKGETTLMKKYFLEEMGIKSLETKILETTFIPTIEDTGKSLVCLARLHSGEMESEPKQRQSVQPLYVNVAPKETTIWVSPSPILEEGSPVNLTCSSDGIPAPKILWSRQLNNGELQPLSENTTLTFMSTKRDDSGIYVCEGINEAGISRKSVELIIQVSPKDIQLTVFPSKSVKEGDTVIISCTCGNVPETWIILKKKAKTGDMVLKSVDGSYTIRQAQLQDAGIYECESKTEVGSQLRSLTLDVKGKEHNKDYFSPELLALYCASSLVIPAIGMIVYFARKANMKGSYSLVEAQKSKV

## anti-VCAM-1•tTF coaguligand (MK2.7 anti-VCAM-1 IgG covalently linked through SMPT to truncated human tissue factor) (from UniProt P13726 33-251)
[1]
  amount bound to unstimulated cells against stimulated cells: 50 % lower
[2]
  amount of anti-TF antibody bound at saturation: 8.7 fmol
  molecules of anti-TF antibody bound per cell at saturation (molecules per cell): 540000
[3]
  Generation of factor Xa (chromogenic assay, S-2765), intact IL-1α-stimulated bEnd.3 cells (ng per 10^4 cells per 60 min): 3.17
  Generation of factor Xa (chromogenic assay, S-2765), intact unstimulated bEnd.3 cells (ng per 10^4 cells per 60 min): 1.64
  Generation of factor Xa (chromogenic assay, S-2765), saponin-permeabilized IL-1α-stimulated bEnd.3 cells (ng per 10^4 cells per 60 min): 98.8
  Generation of factor Xa (chromogenic assay, S-2765), saponin-permeabilized unstimulated bEnd.3 cells (ng per 10^4 cells per 60 min): 49.2
[3]; scale: ng of factor Xa per 10,000 cells per 60 min
  factor Xa produced by permeabilized IL-1α-stimulated bEnd.3 cells preincubated with coaguligand, no Annexin V: 95

— patent publication US20060141545A1
